# “And” between values parts separate entries of the source, which are not always exact repeats. Equal entries are not always repeated.
# Biological target: human adiponectin (ADPN) from egg white of OVA ADPN knock-in chickens (human) (UniProt Q15848)
# Assay: non-reducing SDS-PAGE and Western blot; crude egg white of KI hens 0090 and 0141, diluted, in RIPA buffer and Laemmli sample buffer, 95°C 5 min, 10% gel, non-reducing; anti-adiponectin blot; under reducing conditions the multimer bands decreased and the monomer band increased
substance,measurement,value
human adiponectin (ADPN) from egg white of OVA ADPN knock-in chickens (from UniProt Q15848 19-244) (natural protein),stoichiometry N,3 and 6
